Results on five molecules are retold here after patent US20130224191A1, “NOTUM PROTEIN MODULATORS AND METHODS OF USE” (priority 2010, published 2013).

For data set [1], the system named is luciferase transcription in the 293.TCF cells. Briefly: Luciferase reporter activation in 293.TCF cells. Type of data set: cell-based, human. The following applies: 40 mM. From the text: To generate a stable population of cells that contain a reporter for the activation of canonical Wnt signaling, HEK 293T cells were transduced with a lentiviral vector, pGreenFirel-TCF (System Biosciences) which encodes a bifunctional GFP and luciferase reporter cassette under the control of a minimal CMV reporter linked to four tandem repeats of the transcriptional response elements for TCF. Transduced cells populations, termed 293.TCF cells, were subsequently used in a Wnt3A canonical signaling assay as follows: 2.5×10^4 293.TCF cells were plated per well of a 96-well tissue culture plate in 50 μL of serum-free DME medium. After 24 hours of serum starvation, 25 μL of various dilutions of conditioned medium (CM) from L/Wnt3A cells (ATCC CRL-2647; Willert, 2003) or undiluted CM from parental L-cells (ATCC CRL-2648) along with 25 μL of DMEM+0.2% FBS were added to each well. […] The contents of each well were then mixed thoroughly to lyse the cells, 100 μL of lysate transferred to black 96-well plates, and the luminescence in each well read after 5 mins using a Wallac Victor3 Multilabel Counter (Perkin-Elmer Corp). […] More particularly, as the Wnt3A+ CM media is diluted from 25% down to approximately 3%, activation of the Wnt pathway is reduced with a corresponding decrease in luminescence.

Another data set concerns the target T1, Notum (Homo sapiens, UniProt Q6P988).
T1 sequence (Q6P988 20-496): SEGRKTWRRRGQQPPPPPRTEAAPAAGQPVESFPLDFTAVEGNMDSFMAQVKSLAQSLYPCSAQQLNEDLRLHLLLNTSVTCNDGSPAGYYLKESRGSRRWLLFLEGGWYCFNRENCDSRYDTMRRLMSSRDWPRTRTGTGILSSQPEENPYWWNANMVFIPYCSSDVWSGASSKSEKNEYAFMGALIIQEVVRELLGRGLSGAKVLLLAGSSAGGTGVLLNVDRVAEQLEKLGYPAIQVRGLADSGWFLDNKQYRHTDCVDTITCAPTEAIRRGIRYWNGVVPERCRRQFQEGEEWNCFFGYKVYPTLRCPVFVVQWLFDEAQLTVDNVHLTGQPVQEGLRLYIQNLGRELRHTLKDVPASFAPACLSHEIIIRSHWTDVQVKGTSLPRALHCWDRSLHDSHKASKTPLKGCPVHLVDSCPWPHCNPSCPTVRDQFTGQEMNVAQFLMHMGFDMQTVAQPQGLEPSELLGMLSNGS
Briefly: 4-MUH assay, small molecule inhibition of Notum. Type of data set: biochemical. The following applies: 4-MUH 240 μM or 90 μM; orlistat 0-170 μM. The protocol: (§1) In addition to the assays described in Examples 23 and 24, a fluorescent esterase substrate, 4-methylumbelliferyl heptanoate (Sigma), can be used to measure the activity of hydrolases using standard assay conditions (Richardson and Smith, 2007, PMID: 17620441; Jacks and Kircher, 1967, PMID: 5582971). Briefly, 4-MUH was dissolved in DMSO to a final concentration of 1.2 mM. This substrate was diluted 1:10 into assay buffer (0.1M Tris, pH 7.5, 50 mM NaCl, 0.05% Brij) and incubated with defined amounts of Notum enzyme or point-mutated Notum enzymes, and enzymatic release of the fluorescent molecule 4-methylumbelliferone monitored (355 nm excitation, 460 nm emission) using a Wallac Victor3 Multilabel Counter (Perkin Elmer).
Consistent with a putative hydrolase activity for Notum, it could be hypothesized that this inactivation is related to the ability of Notum to delipidate Wnt3A. Two lipids are known to be linked to Wnt3A, a saturated palmitate chain at Cys77 and an unsaturated palmitoleoylic chain at S209 (Lorenowicz and Korswagen, 2009, PMID: 19559695). […] Therefore, the 4-MUH assay described in example 25 was performed in the presence of varying amounts of 4-MUH substrate (240 μM or 90 μM) and orlistat (0-170 μM).

Data set [2] relates to Wnt3A-mediated induction of luciferase in the 293.TCF cells. Briefly: Wnt3A canonical signaling assay, bioactivity of Notum constructs. Type of data set: cell-based, human. From the text: To generate a stable population of cells that contain a reporter for the activation of canonical Wnt signaling, HEK 293T cells were transduced with a lentiviral vector, pGreenFirel-TCF (System Biosciences) which encodes a bifunctional GFP and luciferase reporter cassette under the control of a minimal CMV reporter linked to four tandem repeats of the transcriptional response elements for TCF. Transduced cells populations, termed 293.TCF cells, were subsequently used in a Wnt3A canonical signaling assay as follows: 2.5×10^4 293.TCF cells were plated per well of a 96-well tissue culture plate in 50 μL of serum-free DME medium. After 24 hours of serum starvation, 25 μL of various dilutions of conditioned medium (CM) from L/Wnt3A cells (ATCC CRL-2647; Willert, 2003) or undiluted CM from parental L-cells (ATCC CRL-2648) along with 25 μL of DMEM+0.2% FBS were added to each well. Eighteen hours after addition of CM, 100 μL of One-Glo solution (ProMega Corp.) was added to each well. The contents of each well were then mixed thoroughly to lyse the cells, 100 μL of lysate transferred to black 96-well plates, and the luminescence in each well read after 5 mins using a Wallac Victor3 Multilabel Counter (Perkin-Elmer Corp). […] More particularly, as the Wnt3A+ CM media is diluted from 25% down to approximately 3%, activation of the Wnt pathway is reduced with a corresponding decrease in luminescence.
Once the luciferase reporter system was established, assays for determining the bioactivity of various Notum modulators were performed as follows. 2.5×10^4 293.TCF cells were plated per well of a 96-well tissue culture plate in 50 μL of serum-free medium. After 23 hours of serum starvation, 25 μL of DMEM+0.2% FBS containing various Notum modulators at various concentrations (e.g., hNotum-His, hNotum-hFc, hNotum-S232A-His, murine Notum-His, murine Notum-hFc, macaque Notum-hFc, control protein-His or control protein-hFc obtained as per Examples 7, 8 and 13 above), were added to the cells. After 1 hour, 25 μL of Wnt3A or control L-cell CM were added to each well. Eighteen hours after addition of CM, 100 μL of One-Glo solution (ProMega Corp.) was added to each well, the contents of each well mixed thoroughly to lyse the cells, 100 μL of lysate transferred to black 96-well plates, and the luminescence read after 5 minutes.

Data set [3] relates to mouse lineage-depleted NTX tumor cells from SCRx-CR4. Briefly: Cell survival/proliferation, CellTiterGlo, SCRx-CR4. Type of data set: cell-based, human. The following applies: 1 or 10 μg/mL, 14 days. The protocol: (§2) To determine whether Notum protein impacts cell proliferation and/or apoptosis of human colorectal cancer cells, HCT-116 cells or mouse lineage-depleted NTX tumor cells (i.e. human tumor cells) were plated as described below and exposed to recombinant hNotum (e.g. hNotum-His or hNotum-hFc) and anti-Notum antibodies. Cell numbers were then assessed 12-14 days later.
(§3) Cells were then incubated for 14 days at 37° C., 5% CO2 and 5% O2 and the number of viable cells was assessed using Promega's CellTiterGlo assay kit per the manufacturer's instructions. For the HCT-116 cell line (a commercially available colorectal tumor cell line), cells were plated at 2,000 cells per well in DMEM+1% FBS, followed 24-hours later by the addition of serum free DMEM containing recombinant human Notum in the presence or absence of monoclonal antibodies SC2.D2.2 or SC2.10B3. HCT-116 cells were then incubated for 12 days at 37° C., 5% CO2 and cell viability was assessed with Promega's CellTiterGlo assay kit. Higher readings are indicative of higher viable cell counts.

In a further data set the target is T2, rhWnt3A (Homo sapiens, UniProt P56704).
T2 construct: purchased R & D Systems
T2 sequence (P56704 19-352): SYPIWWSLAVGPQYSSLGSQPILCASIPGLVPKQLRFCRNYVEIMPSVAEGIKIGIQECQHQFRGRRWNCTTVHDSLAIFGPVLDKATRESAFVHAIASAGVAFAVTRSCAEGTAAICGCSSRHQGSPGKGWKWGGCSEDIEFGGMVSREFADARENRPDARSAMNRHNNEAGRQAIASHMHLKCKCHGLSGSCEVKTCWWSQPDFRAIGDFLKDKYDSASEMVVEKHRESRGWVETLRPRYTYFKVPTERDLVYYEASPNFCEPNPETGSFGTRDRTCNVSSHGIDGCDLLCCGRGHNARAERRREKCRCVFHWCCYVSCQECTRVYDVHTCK
The experiment in a line: Triton X114 partition assay, delipidation of rhWnt3A by Notum. Type of data set: biochemical. The conditions noted are these: overnight incubation. From the text:
If Notum directly acts upon Wnt3A to delipidate the protein, this cleavage should result in a change in the hydrophobicity of the protein, which can be measured by a change in its partitioning behavior between aqueous and detergent phases in a Triton X114 partition assay (Bordier, 1981, PMID: 6257680): lipidated Wnt3A will be found in the […], whereas delipidated Wnt3A should show up in the […] (Willert et al., 2003, PMID: 12717451). […] An equal volume of 4.5% Triton X114 was added to the mixture, the mixture incubated on ice for 5 minutes, then at 37° C. for five minutes, before separating the phases using centrifugation at 2000×g for five minutes at room temperature. Following separation each sample was adjusted to normalize the ionic strength and Triton X114 content before analyzing the aliquots by PAGE electrophoresis. After running the gel the protein bands were transferred to a membrane for immunoblotting using an anti-rhWnt3A antibody (Cell Signaling Technology). Bands were visualized using SuperSignal West Pico Chemiluminescent substrate (Thermo Fisher Scientific).

Data set [4] concerns mouse lineage-depleted NTX tumor cells from SCRx-CR42. The experiment in a line: Cell survival/proliferation, CellTiterGlo, SCRx-CR42. Type of data set: cell-based, human. The conditions noted are these: 10 μg/mL, 14 days. The procedure:
as §2, §3

Data set [5] can be described thus: Lipase activity of hNotum, turbidometric Tween 20 lipolysis. Type of data set: biochemical. The protocol: Briefly, recombinant hNotum (1 μg/well) was added to an assay buffer containing 50 mM Tris, pH 7.4, 33.3 mM CaCl2, and 0.33% Tween-20. When the Tween 20 monolauryl group is cleaved by lipases (e.g. hNotum), the free fatty acid forms an insoluble complex with the Ca^2+ cations resulting in a turbid solution, the OD of which can be measured at 405 nm to provide a measure of lipase activity. As a positive control, the activity of porcine pancreatic lipase (Sigma Aldrich) was measured in the same assay.

A short description of data set [6]: Esterase activity of Notum proteins on chromogenic substrates. Type of data set: biochemical. The conditions noted are these: 1 hour at 37° C. The procedure:
Briefly, PNPA or PNPB were dissolved/diluted in isopropanol to final concentrations of 10 mM. These substrate solutions were diluted 1:10 into assay buffer (0.1% gum arabic, 2.3 mg/mL sodium dexoycholate, 1×PBS) and incubated with defined amounts of hNotum enzyme, and the enzymatic release of the chromophore p-nitrophenol monitored by absorbance measurements at 405 nm.

Another data set concerns HCT-116 cells. The experiment in a line: Cell survival/proliferation, CellTiterGlo, HCT-116. Type of data set: cell-based, human. The conditions noted are these: 10 μg/mL, 12 days. The protocol: as §2, §3
A short description of data set [7]: 4-MUH fluorescent hydrolase assay, activity of Notum constructs. Type of data set: biochemical. The protocol:
as §1

Read-outs that look alike come from different tables or passages of the source.

On to `[Cl-].[Li+]` [LiCl], for which the “activation of luciferase transcription” value in data set [1] is “activate luciferase transcription”.

Consider `CCCCCCCCCCC[C@@H](C[C@@H]1OC(=O)[C@H]1CCCCCC)OC(=O)[C@H](CC(C)C)NC=O` [orlistat], for which the “inhibition of hydrolysis activity of Notum upon 4MUH” value at Notum is “inhibits the hydrolysis activity of Notum upon 4MUH in a dose-dependent fashion”.

B1: hNotum-Fc: recombinant human Notum fused to human IgG2 Fc, SEQ ID NO: 333 (protein)
chain: MYRMQLLSCIALSLALVTNSSEGRKTWRRRGQQPPPPPRTEAAPAAGQPVESFPLDFTAVEGNMDSFMAQVKSLAQSLYPCSAQQLNEDLRLHLLLNTSVTCNDGSPAGYYLKESRGSRRWLLFLEGGWYCFNRENCDSRYDTMRRLMSSRDWPRTRTGTGILSSQPEENPYWWNANMVFIPYCSSDVWSGASSKSEKNEYAFMGALIIQEVVRELLGRGLSGAKVLLLAGSSAGGTGVLLNVDRVAEQLEKLGYPAIQVRGLADSGWFLDNKQYRHTDCVDTITCAPTEAIRRGIRYWNGVVPERCRRQFQEGEEWNCFFGYKVYPTLRCPVFVVQWLFDEAQLTVDNVHLTGQPVQEGLRLYIQNLGRELRHTLKDVPASFAPACLSHEIIIRSHWTDVQVKGTSLPRALHCWDRSLHDSHKASKTPLKGCPVHLVDSCPWPHCNPSCPTVRDQFTGQEMNVAQFLMHMGFDMQTVAQPQGLEPSELLGMLSNGSISAMVRSVECPPCPAPPVAGPSVFLFPPKPKDTLMISRTPEVTCVVVDVSHEDPEVQFNWYVDGVEVHNAKTKPREEQFNSTFRVVSVLTVVHQDWLNGKEYKCKVSNKGLPAPIEKTISKTKGQPREPQVYTLPPSREEMTKNQVSLTCLVKGFYPSDIAVEWESNGQPENNYKTTPPMLDSDGSFFLYSKLTVDKSRWQQGNVFSCSVMHEALHNHYTQKSLSLSPGK
Regarding B1, the “antagonism of Wnt3A-mediated induction of luciferase” value (shortened to “antagonism”) in data set [2] is “functionally antagonize”. Further, the “increase in cell counts” value in data set [3] is listed as 20-45%. For the same molecule, in the data set with rhWnt3A, the “redistribution of rhWnt3A between Triton X114 and aqueous phase” value is “leads to a redistribution of the rhWnt3A into the aqueous phase”.

B2: hNotum-His: recombinant His tagged human Notum protein (protein)
chain: T1 sequence (Q6P988 20-496)
modifications: left off: small tags and cut ends
notes: recombinant His tagged human Notum protein
On to B2, for which the “antagonism” value in data set [2] is “functionally antagonize”. Besides, the “increase in cell counts” value in data set [4] is 20-45%.

B3: hNotum: recombinant human Notum protein (e.g. hNotum-His or hNotum-hFc) (protein)
chain: T1 sequence (Q6P988 20-496)
As to B3, the “antagonism” value is listed as “antagonizes Wnt3A CM” in data set [2] and “can inhibit the response of the 293.TCF cells to Wnt3A in a dose-dependent fashion” in data set [2] (listed as wild-type human Notum). Also, the lipase activity result in data set [5] is listed as “capable of cleaving Tween 20 in a dose dependent fashion”. The esterase activity result in [6] was “has carboxyesterase activity”. Also, the “increase in cell numbers” value in the data set with HCT-116 cells is “more than 2 fold”. The “hydrolysis of the 4-MUH substrate” value in [7] is given as “capable of hydrolyzing the 4-MUH substrate”.
